# Assay results: patent publication US20260061032A1 (GI INNOVATION, published 2026)
# T1: IL-2Rβγ on HEK-BLUE IL-2 reporter cells (UniProt P14784 27-551; P31785 23-369)
# T1 sequence (looked up) 1: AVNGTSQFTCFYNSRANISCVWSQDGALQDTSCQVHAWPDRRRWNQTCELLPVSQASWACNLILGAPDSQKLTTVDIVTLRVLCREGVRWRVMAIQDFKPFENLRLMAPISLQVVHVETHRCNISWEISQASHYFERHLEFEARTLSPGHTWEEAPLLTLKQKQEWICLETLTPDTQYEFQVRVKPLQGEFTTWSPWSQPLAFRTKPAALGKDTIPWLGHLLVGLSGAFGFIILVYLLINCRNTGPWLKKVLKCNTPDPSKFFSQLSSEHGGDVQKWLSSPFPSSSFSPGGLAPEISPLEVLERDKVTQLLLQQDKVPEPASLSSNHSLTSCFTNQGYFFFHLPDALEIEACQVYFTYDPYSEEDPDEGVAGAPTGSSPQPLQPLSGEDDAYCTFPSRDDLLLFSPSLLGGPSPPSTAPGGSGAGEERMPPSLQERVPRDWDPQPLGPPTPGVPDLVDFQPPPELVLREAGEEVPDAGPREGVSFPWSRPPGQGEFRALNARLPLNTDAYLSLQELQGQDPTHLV
# T1 sequence (looked up) 2: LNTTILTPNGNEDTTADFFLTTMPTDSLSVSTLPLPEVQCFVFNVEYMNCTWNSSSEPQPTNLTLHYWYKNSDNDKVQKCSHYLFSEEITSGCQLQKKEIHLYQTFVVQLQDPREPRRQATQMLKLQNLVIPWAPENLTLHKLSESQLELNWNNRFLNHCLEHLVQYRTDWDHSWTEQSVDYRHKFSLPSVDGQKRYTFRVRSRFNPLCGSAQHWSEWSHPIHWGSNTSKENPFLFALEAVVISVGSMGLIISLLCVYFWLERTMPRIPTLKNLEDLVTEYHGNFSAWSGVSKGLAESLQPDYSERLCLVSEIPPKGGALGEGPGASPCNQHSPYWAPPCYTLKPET
# T2: hIL-2Rαβγ on CTLL-2 cells (human, UniProt P01589 22-272; P14784 27-551; P31785 23-369)
# T2 sequence (looked up) 1: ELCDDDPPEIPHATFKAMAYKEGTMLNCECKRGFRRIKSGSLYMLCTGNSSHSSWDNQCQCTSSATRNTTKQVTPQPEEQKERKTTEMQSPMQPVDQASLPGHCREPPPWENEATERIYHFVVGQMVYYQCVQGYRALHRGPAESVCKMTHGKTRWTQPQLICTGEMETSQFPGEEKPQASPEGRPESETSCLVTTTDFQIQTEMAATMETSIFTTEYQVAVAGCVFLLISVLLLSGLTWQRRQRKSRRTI
# T2 sequence (looked up) 2: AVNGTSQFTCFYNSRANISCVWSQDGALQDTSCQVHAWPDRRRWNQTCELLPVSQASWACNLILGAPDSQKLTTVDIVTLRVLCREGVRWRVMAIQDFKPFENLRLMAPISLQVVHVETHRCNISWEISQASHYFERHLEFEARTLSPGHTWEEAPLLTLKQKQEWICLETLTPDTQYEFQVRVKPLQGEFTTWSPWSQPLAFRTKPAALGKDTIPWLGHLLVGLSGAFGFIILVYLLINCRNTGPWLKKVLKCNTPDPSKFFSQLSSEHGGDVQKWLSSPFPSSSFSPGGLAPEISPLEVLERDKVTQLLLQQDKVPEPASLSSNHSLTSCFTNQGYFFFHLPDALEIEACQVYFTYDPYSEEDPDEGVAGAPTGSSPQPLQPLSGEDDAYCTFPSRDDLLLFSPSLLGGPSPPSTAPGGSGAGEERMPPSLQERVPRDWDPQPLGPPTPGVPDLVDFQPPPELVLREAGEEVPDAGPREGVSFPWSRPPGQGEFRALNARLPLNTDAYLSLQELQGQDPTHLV
# T2 sequence (looked up) 3: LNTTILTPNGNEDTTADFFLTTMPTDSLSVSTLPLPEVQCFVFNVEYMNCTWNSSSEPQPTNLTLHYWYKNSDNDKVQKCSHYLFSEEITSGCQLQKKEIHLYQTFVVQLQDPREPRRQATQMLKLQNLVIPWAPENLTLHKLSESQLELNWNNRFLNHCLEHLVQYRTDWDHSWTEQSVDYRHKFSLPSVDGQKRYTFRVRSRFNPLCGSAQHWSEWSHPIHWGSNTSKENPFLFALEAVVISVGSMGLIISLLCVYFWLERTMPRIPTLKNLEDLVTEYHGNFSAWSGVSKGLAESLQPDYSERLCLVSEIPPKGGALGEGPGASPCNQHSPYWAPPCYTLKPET
# T3: membrane-bound human CD73 (human, UniProt P21589 27-549)
# T3 sequence: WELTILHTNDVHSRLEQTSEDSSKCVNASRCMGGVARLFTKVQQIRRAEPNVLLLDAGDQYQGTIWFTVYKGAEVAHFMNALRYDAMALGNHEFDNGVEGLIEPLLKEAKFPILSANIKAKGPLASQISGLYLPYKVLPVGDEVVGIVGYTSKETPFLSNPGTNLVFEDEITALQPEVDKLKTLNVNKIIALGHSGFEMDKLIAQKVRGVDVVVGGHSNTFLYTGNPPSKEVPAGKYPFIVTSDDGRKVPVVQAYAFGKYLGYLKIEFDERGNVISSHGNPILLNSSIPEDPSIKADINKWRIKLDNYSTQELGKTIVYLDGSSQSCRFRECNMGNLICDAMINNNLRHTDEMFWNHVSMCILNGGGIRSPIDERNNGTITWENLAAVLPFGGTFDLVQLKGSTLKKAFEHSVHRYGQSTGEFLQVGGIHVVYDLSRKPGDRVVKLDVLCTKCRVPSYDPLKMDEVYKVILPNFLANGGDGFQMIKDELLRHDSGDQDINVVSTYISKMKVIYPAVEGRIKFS
# T4: hCD73 (human, UniProt P21589 27-549, limits assumed)
# T4 sequence: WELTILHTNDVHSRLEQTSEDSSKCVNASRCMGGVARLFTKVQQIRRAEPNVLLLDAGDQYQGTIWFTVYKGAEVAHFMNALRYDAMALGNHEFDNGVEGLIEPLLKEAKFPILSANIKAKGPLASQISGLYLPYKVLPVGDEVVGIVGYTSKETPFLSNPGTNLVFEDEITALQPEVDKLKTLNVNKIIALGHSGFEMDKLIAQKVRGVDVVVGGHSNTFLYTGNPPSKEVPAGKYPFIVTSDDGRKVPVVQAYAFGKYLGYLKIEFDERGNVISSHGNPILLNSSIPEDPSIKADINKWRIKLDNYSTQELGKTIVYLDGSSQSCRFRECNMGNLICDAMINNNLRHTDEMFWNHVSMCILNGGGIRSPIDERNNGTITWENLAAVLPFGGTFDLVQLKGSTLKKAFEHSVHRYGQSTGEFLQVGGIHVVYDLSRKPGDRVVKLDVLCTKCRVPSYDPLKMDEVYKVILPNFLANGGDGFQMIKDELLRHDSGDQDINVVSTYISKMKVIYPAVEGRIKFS
# T5: hIL-2Rα (human, UniProt P01589 22-213)
# T5 construct: also called hIL-2Ra; IL-2 receptor alpha chain
# T5 sequence (looked up): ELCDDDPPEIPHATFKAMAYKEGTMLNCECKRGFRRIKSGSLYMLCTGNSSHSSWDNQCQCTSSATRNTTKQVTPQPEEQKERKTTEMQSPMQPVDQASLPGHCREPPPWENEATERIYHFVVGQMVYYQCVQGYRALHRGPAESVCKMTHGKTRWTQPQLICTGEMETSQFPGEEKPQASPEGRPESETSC
# Columns and labels:
# [1] = molecular target: T1, IL-2Rβγ on HEK-BLUE IL-2 reporter cells; experiment: cell-based or functional assay
# [2] = molecular target: T2, hIL-2Rαβγ on CTLL-2 cells; experiment: cell-based or functional assay
# [3] = molecular target: T3, membrane-bound human CD73; experiment: cell-based or functional assay
# hCD73 = molecular target: T4, hCD73; experiment: cell-based or functional assay
# hIL-2Rα = molecular target: T5, hIL-2Rα; experiment: SPR, Biacore T200; hIL-2Rα on CM5 chip through His capture kit, binder as analyte
# Description: To quantitatively analyze the binding affinities to CD73 and IL-2 receptors of […] and GI-108B1, in which the anti-CD73 antibody that specifically binds to CD73 was linked to the IL-2 variant, and Aldesleukin (trade name: PROLEUKIN®, Novartis), the binding affinities were measured using SPR (surface plasmon resonance). Using a BIACORE™ T200 instrument (Cytiva), the binding affinities of GI-108A1 (AHF10240), GI-108A1 (AHP04167) and GI-108B1 to hCD73, cyCD73, mCD73, hIL-2Rα, hIL-2Rβ, and hIL-2Rβγ were analyzed. Oleclumab (Astrazeneca), produced on order from Ybiologics, Inc., was used as a control.
# To analyze the binding affinity to hIL-2Ra, hIL-2Ra was […] immobilized on Sensor Chip CM5 using a His capture kit (Cytiva, USA). Each of GI-108A1 (AHF10240), GI-108A1 (AHP04167), GI-108B1 and PROLEUKIN®, diluted in HBS-EP+ buffer, was then applied for 1 minute, followed by analysis of association and dissociation. In addition, the binding affinities to hIL-2RB and hIL-2Rβγ were measured by a three-step analysis method including treating Sensor Chip SA (Cytiva, USA) with biotinylated CD73, and then binding each of GI-108A1 (AHF10240), GI-108A1 (AHP04167), GI-108B1 and PROLEUKIN® to CD73, followed by treatment with each of hIL-2RB and hIL-2Rβγ diluted in HBS-P+ buffer (Cytiva, USA). For hIL-2RB, association was performed for 1 minute and dissociation for 1 minute, and for hIL-2Rβγ, association was performed for 5 minutes and dissociation for 2 hours at each concentration, in a single cycle kinetics analysis. Each sensorgram was normalized and subtracted compared to a blank cell to calculate affinity.
Binder,"EC50, SEAP reporter (JAK-STAT pathway activation) in HEK-BLUE IL-2 reporter cells [1]","EC50, CTLL-2 cell proliferation (WST-1 absorbance) [2]","EC50 of CTLL-2 cell proliferation, relative to PROLEUKIN [2]","IC50, inhibition of membrane-bound CD73 enzyme activity on MDA-MB-231 cells (adenosine assay) [3]","IC50, inhibition of soluble CD73 enzyme activity (AMP-Glo assay, recombinant human CD73) (hCD73)",binding result (hIL-2Rα)
"GI-108B1 (Anti-CD73 Ab-hIgG4 Fc-hIL2v3 fusion protein dimer) (antibody, IgG4 anti-CD73 antibody with the IL-2 variant fused to the C-terminus of each heavy chain; expressed in CHO cells, purified as a dimer) heavy: QVQLVQSGAEVKKPGSSVKVSCKFSGGSFTSYSFSWVRQAPGQGLEWMGRIIPVLTTTDYAQKFRDRVTITADESTSTAYMELSGLRSEDTAVYYCASGLKKNWYFDLWGRGALITVSSASTKGPSVFPLAPCSRSTSESTAALGCLVKDYFPEPVTVSWNSGALTSGVHTFPAVLQSSGLYSLSSVVTVPSSSLGTKTYTCNVDHKPSNTKVDKRVESKYGPPCPPCPAPEAAGGPSVFLFPPKPKDQLMISRTPEVTCVVVDVSQEDPEVQFNWYVDGVEVHNAKTKPREEQFNSTYRVVSVLTVLHQDWLNGKEYKCKVSNKGLPSSIEKTISKAKGQPREPQVYTLPPSQEEMTKNQVSLTCLVKGFYPSDIAVEWESNGQPENNYKTTPPVLDSDGSFFLYSRLTVDKSRWQEGNVFSCSVLHEALHNHYTQKSLSLSLGGGGGSGGGGSAPTSSSTKKTQLQLEHLLLDLQMILNGINNYKNPKLTAMLTAKFYMPKKATELKHLQCLERELKPLEEVLNLAQSKNFHLRPRDLISNINVIVLELKGSETTFMCEYADETATIVEFLNRWITFCQSIISTLT light: not shown",0.00128 nM,1.7 nM,20 fold,3.37 nM,0.126 nM,no binding
"GI-108A1 (AHP04167) (Anti-CD73 sdAb-hIgG4 Fc-hIL2v3 fusion protein dimer) (Fc fusion, Homodimer through hinge cysteines) EVQLVESGGGLVQAGGSLRLSCVVSGRTFSNYHMGWFRQAPGKEREFVAVIGRSGGPTYYADSVKGRFTISRDNAKNTVYLQMNSLKPEDTAVYYCAGDWRNSDSPSKLKPVYDYWGQGTQVTVSSGGGGSAESKYGPPCPPCPAPEAAGGPSVFLFPPKPKDQLMISRTPEVTCVVVDVSQEDPEVQFNWYVDGVEVHNAKTKPREEQFNSTYRVVSVLTVLHQDWLNGKEYKCKVSNKGLPSSIEKTISKAKGQPREPQVYTLPPSQEEMTKNQVSLTCLVKGFYPSDIAVEWESNGQPENNYKTTPPVLDSDGSFFLYSRLTVDKSRWQEGNVFSCSVLHEALHNHYTQKSLSLSLGGGGGSGGGGSGGGGSAPTSSSTKKTQLQLEHLLLDLQMILNGINNYKNPKLTAMLTAKFYMPKKATELKHLQCLERELKPLEEVLNLAQSKNFHLRPRDLISNINVIVLELKGSETTFMCEYADETATIVEFLNRWITFCQSIISTLT",0.00394 nM,3.93 nM,20 fold,5.58 nM,0.102 nM,no binding
"GI-108A1 (AHF10240) (Anti-CD73 sdAb-hIgG4 Fc-hIL2v3 fusion protein dimer) (Fc fusion, Homodimer through hinge cysteines) EVQLVESGGGVVQTGGSLRLSCAASGRTFTHLAMGWFRQAPGKEREFVAAISNSGAGTQFADSVKGRFTISRDNAKNTVYLQMNSLKPEDTAVYYCAADWGTRDSPSKLNAVYDYWGRGTQVTVSSGGGGSAESKYGPPCPPCPAPEAAGGPSVFLFPPKPKDQLMISRTPEVTCVVVDVSQEDPEVQFNWYVDGVEVHNAKTKPREEQFNSTYRVVSVLTVLHQDWLNGKEYKCKVSNKGLPSSIEKTISKAKGQPREPQVYTLPPSQEEMTKNQVSLTCLVKGFYPSDIAVEWESNGQPENNYKTTPPVLDSDGSFFLYSRLTVDKSRWQEGNVFSCSVLHEALHNHYTQKSLSLSLGGGGGSGGGGSGGGGSAPTSSSTKKTQLQLEHLLLDLQMILNGINNYKNPKLTAMLTAKFYMPKKATELKHLQCLERELKPLEEVLNLAQSKNFHLRPRDLISNINVIVLELKGSETTFMCEYADETATIVEFLNRWITFCQSIISTLT",0.00263 nM,2.02 nM,20 fold,2.75 nM,0.06 nM,no binding
